Test results taken from patent US20250295587A1, “COMPLEX LIPID NANOPARTICLES ENCAPSULATING POLYPEPTIDES AND USES THEREOF” (SAIL BIOMEDICINES, INC., priority 2022, published 2025).

Assays:
[1] = set-up: species or system mice; conditions: mouse, in vivo
Experimental: The animals used were C57BL6 female 8-week-old mice (Jax #0664). […] Mice were weighed, and a pre-bleed sample was taken (through tail vein, retro-orbital or submandibular means). The mice were fasted overnight before being dosed via intracolonic administration with 50 uL of a given insulin-loaded complex lipid formulation (Table 8). Non-terminal bleeds at 30 minutes and 60 minutes post-dose were taken, alternating routes of collection. A terminal bleed at 120 minutes post-dose via cardiac puncture was also taken. Whole blood samples from the pre-bleed, 30 minute, 60 minute, and 120 minute bleeds were processed for plasma then stored at −80° C. Insulin levels were quantified by MSD assay. Exposure to the active biomolecule (e.g. insulin) was measured as area under the curve (AUC) of the four measured timepoints, and dose was measured as BCA*dose volume (0.05 mL). Therefore, the data in Table 9 for each mouse is shown as systemic levels of insulin (or exposure normalized by dose). […] Unexpectedly, 20 of 22 (>90%) different complex lipid formulations out-performed free IC insulin.

[2] = Particle loading / insulin encapsulation efficiency by bicinchoninic acid assay (BCA); type: physicochemical; conditions: insulin concentration of the dosed preparation
Experimental: Next, the mixture of re-hydrated particles containing the active biomolecule was purified and separated from the free active biomolecule not loaded in the particles by a dialysis step overnight. The dialysis was performed in a 100 kD dialysis membrane in the buffer used for the formulation process as discussed above, at a buffer volume at least 2000× the volume of the solution to be purified (e.g., 0.1M sodium bicarbonate, pH 8.2, buffer). The dialysate was concentrated in centrifugal unit to the preferred concentration. Alternatively, the purification and separation step could be performed with tangential flow filtration (TFF). The described purification steps are optional and were not performed for all formulations. Particle morphological characteristics were analyzed with dynamic light scattering methods. Particle loading efficiency was quantified with a bicinchoninic acid assay (BCA).
The insulin encapsulation efficiency of the complex lipid formulations (the amount of insulin that was trapped to the vesicles) was also characterized, and the results ranged consistently from 25-35%. Similar characterizations were measured for other formulations of complex lipid particles.

Control: free insulin given by intracolonic (IC) administration, not encapsulated
Systemic levels of insulin (exposure AUC normalized by dose), Avg [1]: Avg = 290.1
BCA (Insulin mg/mL) [2]: Avg = 1.16 mg/mL
